Test results reported in patent US20260159603A1 (BEAM THERAPEUTICS, published 2026).
Residue numbers refer to the chain shown, from its start.

T1: biotinylated human CD5-HIS (human, UniProt P06127 25-372, biotinylated)
T1 construct: Loaded onto streptavidin Octet pins; also called huCD5; SA-human CD5; not shown: HIS tag
T1 sequence (looked up): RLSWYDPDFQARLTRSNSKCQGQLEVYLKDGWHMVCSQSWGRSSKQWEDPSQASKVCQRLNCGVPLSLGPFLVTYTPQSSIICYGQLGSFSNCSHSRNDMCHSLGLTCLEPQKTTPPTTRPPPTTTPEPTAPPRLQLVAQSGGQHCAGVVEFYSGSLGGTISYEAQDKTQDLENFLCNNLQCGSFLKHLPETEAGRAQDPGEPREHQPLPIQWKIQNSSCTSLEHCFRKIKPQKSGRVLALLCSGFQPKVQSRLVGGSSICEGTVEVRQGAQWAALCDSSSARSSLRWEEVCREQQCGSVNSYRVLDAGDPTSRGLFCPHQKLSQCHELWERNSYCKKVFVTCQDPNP

T2: human CD5 on transfected HEK293T cells (human, UniProt P06127 25-495)
T2 construct: whole, on cells; also called huCD5; Human CD5 Cells
T2 sequence (looked up): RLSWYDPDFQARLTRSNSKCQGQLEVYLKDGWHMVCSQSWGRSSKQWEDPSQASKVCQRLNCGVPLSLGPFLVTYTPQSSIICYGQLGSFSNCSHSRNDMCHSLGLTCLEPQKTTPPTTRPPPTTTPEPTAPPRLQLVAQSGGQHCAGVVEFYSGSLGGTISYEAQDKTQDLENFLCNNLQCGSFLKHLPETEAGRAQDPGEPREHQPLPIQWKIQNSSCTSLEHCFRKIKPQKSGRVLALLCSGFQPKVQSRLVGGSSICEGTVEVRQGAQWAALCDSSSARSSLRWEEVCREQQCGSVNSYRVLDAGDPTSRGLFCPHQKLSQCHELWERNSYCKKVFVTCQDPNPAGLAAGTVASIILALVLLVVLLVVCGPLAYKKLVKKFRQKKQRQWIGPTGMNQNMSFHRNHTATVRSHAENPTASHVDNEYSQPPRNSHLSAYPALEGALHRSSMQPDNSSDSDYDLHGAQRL

B1: ABTx321 (VHH)
VHH: QLQLVESGGGLVQPGESLRLSCVVSGDIFSFVGWGWYRQAPGKQREVVAQISTGGLTNYADSVKGRFAISRDNAKRTVYLQMNSLKFEDTAVYYCNVPGHPWGQGTQVTVSS
notes: VHH in periplasmic extract of the phage display clone; also called clone 1043; not shown: c-myc tag of the phagemid construct (detected with anti-c-myc 9E10)
B2: ABTx328 (VHH)
VHH: B1 VHH with L2V, V32I, V47L, S52N, N58D, A68T, V97F, P101S
notes: VHH in periplasmic extract of the phage display clone; also called clone 1050; not shown: c-myc tag of the phagemid construct (detected with anti-c-myc 9E10)
B3: ABTx318 (VHH)
VHH: QVQLQESGGGSVQAGGSLRLSCAASGRAFSAYAMGWFRQAPGKEREFVAAINWNGDTALRWNGFATRYADSVKGRFTISRVIAKNTVNLQMNSLKPEDTAVYYCAADTVVSGSYYLAARAEDYEYWGQGTQVTVSS
notes: VHH in periplasmic extract of the phage display clone; also called clone 333; not shown: c-myc tag of the phagemid construct (detected with anti-c-myc 9E10)
B4: ABTx320 (VHH)
VHH: QVQLVESGGGLVQAGGSLRLSCAASGPAFSSSGMGWFRQAPGKAREFVASMDWTGGSTYYGDSVKGRFTVSRDNAKMTVHLQMNSLRPEDTAVYYCARGTSGVAAVNLRGFFSWGPGTQVTVSS
notes: VHH in periplasmic extract of the phage display clone; also called clone 157; not shown: c-myc tag of the phagemid construct (detected with anti-c-myc 9E10)
B5: ABTx316 (VHH)
VHH: QVQLVESGGGLVQAGGSLRLSCAASGGTVSSYAMGWFRQAPGKEREFVAVISWSGGRTYYADSVKGRFTISRDNAKNTVNLQMNSLKPEDTAVYYCAADPWTSDSDYERLTMYDYWGQGTQVTVSS
notes: VHH in periplasmic extract of the phage display clone; also called clone 525; not shown: c-myc tag of the phagemid construct (detected with anti-c-myc 9E10)
B6: ABTx319 (VHH)
VHH: QVQLVESGGGLVQPGGSLRLSCAASGFTFSMYSMSWVRQAPGKRLEWVSSISTGARDTAYADSVKGRFTISRDNADNTLYLHMNNLKPEDTAVYYCANGDLRYGPDGYDYRGQGTQVTVSS
notes: VHH in periplasmic extract of the phage display clone; also called clone 917; not shown: c-myc tag of the phagemid construct (detected with anti-c-myc 9E10)
B7: ABTx322 (VHH)
VHH: QLQLVESGGGLVQPGGSLRLSCAASGSDFLVDATTWFRQAPGNQREFVAIMDIGGVTEYADSVKGRFTISRDHTKNTVYLQMNSLKVEDTAVYYCNTRGLWGQGTLVTVSS
notes: VHH in periplasmic extract of the phage display clone; also called clone 660; not shown: c-myc tag of the phagemid construct (detected with anti-c-myc 9E10)

biological target: T3, biotinylated cynomolgus CD5-HIS (cynomolgus); test: BLI (Octet), biotinylated CD5-HIS on streptavidin pins
T3 construct: Loaded onto streptavidin Octet pins; also called CynoCD5; SA-Cyno CD5

Going from B1 to B2, the Kd rises from 0.37 nM to 0.93 nM (2.5-fold).

B3 and B4 are within 1.5-fold of each other in Kd: 2.4 nM for the first, 2.6 nM for the second.

B5 and B6 are within 1.5-fold of each other in Kd: 1.6 nM for the first, 2.2 nM for the second.

For B7, the Kd was 1.1 nM.

Going from B1 to B2, the koff rises from 8.8e-05 s⁻¹ to 0.00018 s⁻¹ (2-fold).

B3 and B4 are within 1.5-fold of each other in koff: 0.00022 s⁻¹ for the first, 0.0002 s⁻¹ for the second.

B5 and B6 are within 1.5-fold of each other in koff: 0.00021 s⁻¹ for the first, 0.0002 s⁻¹ for the second.

B7 showed a koff of 0.00011 s⁻¹.

B1 and B2 are within 1.5-fold of each other in kon: 240000 M⁻¹ s⁻¹ for the first, 190000 M⁻¹ s⁻¹ for the second.

B3 and B4 are within 1.5-fold of each other in kon: 91000 M⁻¹ s⁻¹ for the first, 76000 M⁻¹ s⁻¹ for the second.

B5 and B6 are within 1.5-fold of each other in kon: 130000 M⁻¹ s⁻¹ for the first, 94000 M⁻¹ s⁻¹ for the second.

B7 showed a kon of 97000 M⁻¹ s⁻¹.

biological target: T1, biotinylated human CD5-HIS; test: as above

First: B1
Second: B2
The Kd of the first is 1.6-fold lower: 0.23 nM for the first, 0.36 nM for the second. The first binds more tightly here.

B3 and B4 are within 1.5-fold of each other in Kd: 2.5 nM for the first, 2.8 nM for the second.

B5 and B6 are within 1.5-fold of each other in Kd: 1.4 nM for the first, 1.8 nM for the second.

With B7 the Kd was 1 nM.

First: B1
Second: B2
The koff of the first is 1.8-fold lower: 5.2e-05 s⁻¹ for the first, 9.2e-05 s⁻¹ for the second.

B3 and B4 are within 1.5-fold of each other in koff: 0.00016 s⁻¹ for the first, 0.00019 s⁻¹ for the second.

B5 and B6 are within 1.5-fold of each other in koff: 0.00015 s⁻¹ for the first, 0.00013 s⁻¹ for the second.

In the case of B7, the koff is reported as 0.0001 s⁻¹.

B1 and B2 are within 1.5-fold of each other in kon: 220000 M⁻¹ s⁻¹ for the first, 260000 M⁻¹ s⁻¹ for the second.

B3 and B4 are within 1.5-fold of each other in kon: 65000 M⁻¹ s⁻¹ for the first, 69000 M⁻¹ s⁻¹ for the second.

Compared with B5, B6 is 1.5-fold lower in kon: 110000 M⁻¹ s⁻¹ for the first, 72000 M⁻¹ s⁻¹ for the second.

Work on B7 yielded a kon of 95000 M⁻¹ s⁻¹.

biological target: T2, human CD5 on transfected HEK293T cells; test: flow cytometry, periplasmic extract on transfected HEK293T cells

Compared with B1, B2 is lower in “percent of cells showing binding” value: 84.9% for the first, 45.4% for the second.

First: B3
Second: B4
The “percent of cells showing binding” value of the first is higher: 84.9% for the first, 80.3% for the second.

Going from B5 to B6, the “percent of cells showing binding” value falls from 85.8% to 74.8%.

For B7, the “percent of cells showing binding” value was 70.1%.

biological target: T4, cynomolgus CD5 on transfected HEK293T cells (cynomolgus (Table 8B); rhesus macaque …); test: as above
T4 construct: whole, on cells; also called Cynomolgus CD5 Cells; rhesus macaque (Macaca mulatta) CD5

Compared with B1, B2 is lower in “percent of cells showing binding” value: 87.7% for the first, 40.7% for the second.

Going from B3 to B4, the “percent of cells showing binding” value rises from 67.1% to 77.7%.

First: B5
Second: B6
The “percent of cells showing binding” value of the first is higher: 81.7% for the first, 62.6% for the second.

B7 was tested, and the “percent of cells showing binding” value was 82.3%.

biological target: T3, biotinylated cynomolgus CD5-HIS; test: BLI (Octet), biotinylated CD5-HIS on streptavidin pins, periplasmic extract, off-rate

Compared with B1, B2 is 210-fold lower in koff: 0.0136 s⁻¹ for the first, 6.34e-05 s⁻¹ for the second.

First: B3
Second: B4
The koff of the first is 72-fold higher: 0.0546 s⁻¹ for the first, 0.000757 s⁻¹ for the second.

First: B5
Second: B6
The koff of the first is 1.5-fold lower: 0.0343 s⁻¹ for the first, 0.0531 s⁻¹ for the second.

In the case of B7, the koff is reported as 0.0028 s⁻¹.

biological target: T1, biotinylated human CD5-HIS; test: as above

Compared with B1, B2 is 110-fold lower in koff: 0.0077 s⁻¹ for the first, 7.04e-05 s⁻¹ for the second.

Going from B3 to B4, the koff falls from 0.0138 s⁻¹ to 0.00137 s⁻¹ (10-fold).

Going from B5 to B6, the koff rises from 0.0054 s⁻¹ to 0.0116 s⁻¹ (2.1-fold).

B7 was tested, and the koff was 0.000331 s⁻¹.

biological target: T1, biotinylated human CD5-HIS; test: BLI; KD on human CD5 divided by KD on cynomolgus CD5

Going from B1 to B2, the “Hu/Cyno KD” value falls from 0.6 to 0.4.

First: B3
Second: B4
The “Hu/Cyno KD” value of the first is lower: 1 for the first, 1.1 for the second.

First: B5
Second: B6
The “Hu/Cyno KD” value of the first is higher: 0.9 for the first, 0.8 for the second.

B7 was tested, and the “Hu/Cyno KD” value was 0.9.
